Here are results for 6 substances from US20230203467A1.

Experiment [1] concerns the target VEGFR-1 on transfected endothelial cells (PAE/VEGFR-1) (UniProt P17948). In words: cell-based or functional assay.
The target in experiment [2] is VEGFR-2 receptor on transfected endothelial cells (PAE/VEGFR-2) (UniProt P35968). In words: cell-based or functional assay.

UniProt P17948, sequence (P17948 27-1338 limits assumed): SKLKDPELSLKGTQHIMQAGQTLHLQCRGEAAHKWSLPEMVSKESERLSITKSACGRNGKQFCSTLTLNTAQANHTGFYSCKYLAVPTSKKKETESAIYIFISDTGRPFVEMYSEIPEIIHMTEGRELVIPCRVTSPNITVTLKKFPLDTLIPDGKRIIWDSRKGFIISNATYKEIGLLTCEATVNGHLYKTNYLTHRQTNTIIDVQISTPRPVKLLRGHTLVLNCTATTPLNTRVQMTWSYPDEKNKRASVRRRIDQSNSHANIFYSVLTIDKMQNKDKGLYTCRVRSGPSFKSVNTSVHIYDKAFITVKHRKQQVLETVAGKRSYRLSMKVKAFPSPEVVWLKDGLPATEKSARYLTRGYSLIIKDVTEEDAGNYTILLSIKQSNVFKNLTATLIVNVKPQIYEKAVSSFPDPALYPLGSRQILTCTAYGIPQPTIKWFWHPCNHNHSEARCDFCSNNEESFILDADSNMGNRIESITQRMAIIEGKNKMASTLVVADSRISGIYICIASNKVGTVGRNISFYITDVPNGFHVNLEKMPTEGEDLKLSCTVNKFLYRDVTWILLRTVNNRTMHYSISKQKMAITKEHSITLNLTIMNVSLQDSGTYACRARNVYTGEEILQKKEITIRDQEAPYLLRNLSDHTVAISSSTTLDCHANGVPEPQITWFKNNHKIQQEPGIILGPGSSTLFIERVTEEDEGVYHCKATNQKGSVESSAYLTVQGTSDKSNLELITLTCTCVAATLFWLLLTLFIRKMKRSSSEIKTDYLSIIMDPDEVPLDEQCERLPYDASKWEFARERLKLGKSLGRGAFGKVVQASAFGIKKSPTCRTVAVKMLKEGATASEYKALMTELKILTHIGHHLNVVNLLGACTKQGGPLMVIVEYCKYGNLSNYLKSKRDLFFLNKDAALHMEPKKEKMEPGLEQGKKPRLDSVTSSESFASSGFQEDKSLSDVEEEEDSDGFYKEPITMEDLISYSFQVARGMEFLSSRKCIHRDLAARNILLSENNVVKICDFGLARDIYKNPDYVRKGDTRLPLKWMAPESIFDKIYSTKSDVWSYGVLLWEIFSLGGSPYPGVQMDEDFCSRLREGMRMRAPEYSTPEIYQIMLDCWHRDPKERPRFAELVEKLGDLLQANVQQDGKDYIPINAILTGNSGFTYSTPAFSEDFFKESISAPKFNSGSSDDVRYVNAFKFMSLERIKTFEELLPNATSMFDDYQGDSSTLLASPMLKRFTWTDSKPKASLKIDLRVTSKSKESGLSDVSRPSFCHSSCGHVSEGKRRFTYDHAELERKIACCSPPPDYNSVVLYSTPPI

As for “PVPN-GrB/VEGF121 (from UniProt P15692 27-147)”, the IC50 (nM) on PEA/VEGFR-1 cells, construct pre-incubated in PBS (4 h) in experiment [1] was above 100 nM. In addition, the IC50 (nM) on PEA/VEGFR-2 cells, construct pre-incubated in PBS (4 h) in experiment [2] came out at 8 nM.
For the substance “EA-GrB/VEGF121 (from UniProt P15692 27-147)”, in experiment [1], the IC50 (nM) on PEA/VEGFR-1 cells, construct pre-incubated in FBS (4 h) was above 100 nM and the IC50 (nM) on PEA/VEGFR-1 cells, construct pre-incubated in PBS (4 h) is above 100 nM. In experiment [2], this substance came in with an IC50 (nM) on PEA/VEGFR-2 cells, construct pre-incubated in FBS (4 h) of 39 nM and an IC50 (nM) on PEA/VEGFR-2 cells, construct pre-incubated in PBS (4 h) of 8 nM.
In experiment [1], “GrB/VEGF121 (from UniProt P15692 27-147)” yielded an IC50 nM, cytotoxicity on PAE/VEGFR-1 (-) control cells above 1000 nM; an IC50 (nM) on PEA/VEGFR-1 cells, construct pre-incubated in FBS (4 h) above 100 nM; an IC50 (nM) on PEA/VEGFR-1 cells, construct pre-incubated in PBS (4 h) above 100 nM. In experiment [2], this substance returned an IC50 nM, cytotoxicity on PAE/VEGFR-2 (+) cells of 15.3 nM; an IC50 (nM) on PEA/VEGFR-2 cells, construct pre-incubated in FBS (4 h) above 100 nM; an IC50 (nM) on PEA/VEGFR-2 cells, construct pre-incubated in PBS (4 h) of 4 nM.
The substance “EAPVPN-GrB/VEGF121 (from UniProt P15692 27-147)” showed an IC50 (nM) on PEA/VEGFR-1 cells, construct pre-incubated in PBS (4 h) in experiment [1] above 100 nM. In experiment [2], this substance returned an IC50 (nM) on PEA/VEGFR-2 cells, construct pre-incubated in PBS (4 h) of 5 nM.
In experiment [1], “LP-GrB/VEGF121 (from UniProt P15692 27-147)” registered an IC50 (nM) on PEA/VEGFR-1 cells, construct pre-incubated in FBS (4 h) above 100 nM and an IC50 (nM) on PEA/VEGFR-1 cells, construct pre-incubated in PBS (4 h) above 100 nM. In experiment [2], this substance displayed an IC50 (nM) on PEA/VEGFR-2 cells, construct pre-incubated in FBS (4 h) of 67 nM and an IC50 (nM) on PEA/VEGFR-2 cells, construct pre-incubated in PBS (4 h) of 2 nM.
Turning to “LA-GrB/VEGF121 (from UniProt P15692 27-147)”, in experiment [1], the IC50 (nM) on PEA/VEGFR-1 cells, construct pre-incubated in FBS (4 h) is above 100 nM and the IC50 (nM) on PEA/VEGFR-1 cells, construct pre-incubated in PBS (4 h) is above 100 nM. In experiment [2], this substance yielded an IC50 (nM) on PEA/VEGFR-2 cells, construct pre-incubated in FBS (4 h) of 63 nM and an IC50 (nM) on PEA/VEGFR-2 cells, construct pre-incubated in PBS (4 h) of 8 nM.
